Source: patent publication US20160185836A1 (published 2016)

T1: GDF11 (UniProt O95390 299-407)
T1 sequence (looked up): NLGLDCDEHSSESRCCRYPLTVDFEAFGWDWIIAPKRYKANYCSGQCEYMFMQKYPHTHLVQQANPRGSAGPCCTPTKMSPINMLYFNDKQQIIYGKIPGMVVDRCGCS

T2: activin A (UniProt P08476 311-426)
T2 sequence (looked up): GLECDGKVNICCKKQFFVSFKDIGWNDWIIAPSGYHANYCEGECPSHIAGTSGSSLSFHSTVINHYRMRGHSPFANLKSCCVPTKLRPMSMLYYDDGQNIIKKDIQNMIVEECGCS

B1: FST(291)-IgG2 (Fc fusion)
chain: GNCWLRQAKNGRCQVLYKTELSKEECCSTGRLSTSWTEEDVNDNTLFKWMIFNGGAPNCIPCKETCENVDCGPGKKCRMNKKNKPRCVCAPDCSNITWKGPVCGLDGKTYRNECALLKARCKEQPELEVQYQGRCKKTCRDVFCPGSSTCVVDQTNNAYCVTCNRICPEPASSEQYLCGNDGVTYSSACHLRKATCLLGRSIGLAYEGKCIKAKSCEDIQCTGGKKCLWDFKVGRGRCSLCDELCPDSKSDEPVCASDNATYASECAMKEAACSSGVLLEVKHSGSCNSISTGGGVECPPCPAPPVAGPSVFLFPPKPKDTLMISRTPEVTCVVVDVSHEDPEVQFNWYVDGVEVHNAKTKPREEQFNSTFRVVSVLTVVHQDWLNGKEYKCKVSNKGLPAPIEKTISKTKGQPREPQVYTLPPSREEMTKNQVSLTCLVKGFYPSDIAVEWESNGQPENNYKTTPPMLDSDGSFFLYSKLTVDKSRWQQGNVFSCSVMHEALHNHYTQKSLSLSPGK
notes: Expressed with the follistatin leader in HEK-293 or CHO cells; also called mature FST(291)-IgG2
B2: FST(315)-IgG2 (Fc fusion)
chain: GNCWLRQAKNGRCQVLYKTELSKEECCSTGRLSTSWTEEDVNDNTLFKWMIFNGGAPNCIPCKETCENVDCGPGKKCRMNKKNKPRCVCAPDCSNITWKGPVCGLDGKTYRNECALLKARCKEQPELEVQYQGRCKKTCRDVFCPGSSTCVVDQTNNAYCVTCNRICPEPASSEQYLCGNDGVTYSSACHLRKATCLLGRSIGLAYEGKCIKAKSCEDIQCTGGKKCLWDFKVGRGRCSLCDELCPDSKSDEPVCASDNATYASECAMKEAACSSGVLLEVKHSGSCNSISEDTEEEEEDEDQDYSFPISSILEWTGGGVECPPCPAPPVAGPSVFLFPPKPKDTLMISRTPEVTCVVVDVSHEDPEVQFNWYVDGVEVHNAKTKPREEQFNSTFRVVSVLTVVHQDWLNGKEYKCKVSNKGLPAPIEKTISKTKGQPREPQVYTLPPSREEMTKNQVSLTCLVKGFYPSDIAVEWESNGQPENNYKTTPPMLDSDGSFFLYSKLTVDKSRWQQGNVFSCSVMHEALHNHYTQKSLSLSPGK
notes: Expressed with the follistatin leader in HEK-293 or CHO cells; also called mature FST(315)-IgG2
B3: FST(288)-IgG2 (Fc fusion)
chain: GNCWLRQAKNGRCQVLYKTELSKEECCSTGRLSTSWTEEDVNDNTLFKWMIFNGGAPNCIPCKETCENVDCGPGKKCRMNKKNKPRCVCAPDCSNITWKGPVCGLDGKTYRNECALLKARCKEQPELEVQYQGRCKKTCRDVFCPGSSTCVVDQTNNAYCVTCNRICPEPASSEQYLCGNDGVTYSSACHLRKATCLLGRSIGLAYEGKCIKAKSCEDIQCTGGKKCLWDFKVGRGRCSLCDELCPDSKSDEPVCASDNATYASECAMKEAACSSGVLLEVKHSGSCNTGGGVECPPCPAPPVAGPSVFLFPPKPKDTLMISRTPEVTCVVVDVSHEDPEVQFNWYVDGVEVHNAKTKPREEQFNSTFRVVSVLTVVHQDWLNGKEYKCKVSNKGLPAPIEKTISKTKGQPREPQVYTLPPSREEMTKNQVSLTCLVKGFYPSDIAVEWESNGQPENNYKTTPPMLDSDGSFFLYSKLTVDKSRWQQGNVFSCSVMHEALHNHYTQKSLSLSPGK
notes: Expressed with the follistatin leader in HEK-293 or CHO cells; also called mature FST(288)-IgG2
B4: FST(278)-IgG2 (Fc fusion)
chain: GNCWLRQAKNGRCQVLYKTELSKEECCSTGRLSTSWTEEDVNDNTLFKWMIFNGGAPNCIPCKETCENVDCGPGKKCRMNKKNKPRCVCAPDCSNITWKGPVCGLDGKTYRNECALLKARCKEQPELEVQYQGRCKKTCRDVFCPGSSTCVVDQTNNAYCVTCNRICPEPASSEQYLCGNDGVTYSSACHLRKATCLLGRSIGLAYEGKCIKAKSCEDIQCTGGKKCLWDFKVGRGRCSLCDELCPDSKSDEPVCASDNATYASECAMKEAACSSGVLTGGGVECPPCPAPPVAGPSVFLFPPKPKDTLMISRTPEVTCVVVDVSHEDPEVQFNWYVDGVEVHNAKTKPREEQFNSTFRVVSVLTVVHQDWLNGKEYKCKVSNKGLPAPIEKTISKTKGQPREPQVYTLPPSREEMTKNQVSLTCLVKGFYPSDIAVEWESNGQPENNYKTTPPMLDSDGSFFLYSKLTVDKSRWQQGNVFSCSVMHEALHNHYTQKSLSLSPGK
B5: FST(284)-IgG2 (Fc fusion)
chain: GNCWLRQAKNGRCQVLYKTELSKEECCSTGRLSTSWTEEDVNDNTLFKWMIFNGGAPNCIPCKETCENVDCGPGKKCRMNKKNKPRCVCAPDCSNITWKGPVCGLDGKTYRNECALLKARCKEQPELEVQYQGRCKKTCRDVFCPGSSTCVVDQTNNAYCVTCNRICPEPASSEQYLCGNDGVTYSSACHLRKATCLLGRSIGLAYEGKCIKAKSCEDIQCTGGKKCLWDFKVGRGRCSLCDELCPDSKSDEPVCASDNATYASECAMKEAACSSGVLLEVKHSTGGGVECPPCPAPPVAGPSVFLFPPKPKDTLMISRTPEVTCVVVDVSHEDPEVQFNWYVDGVEVHNAKTKPREEQFNSTFRVVSVLTVVHQDWLNGKEYKCKVSNKGLPAPIEKTISKTKGQPREPQVYTLPPSREEMTKNQVSLTCLVKGFYPSDIAVEWESNGQPENNYKTTPPMLDSDGSFFLYSKLTVDKSRWQQGNVFSCSVMHEALHNHYTQKSLSLSPGK
B6: FST(303)-IgG2 (Fc fusion)
chain: GNCWLRQAKNGRCQVLYKTELSKEECCSTGRLSTSWTEEDVNDNTLFKWMIFNGGAPNCIPCKETCENVDCGPGKKCRMNKKNKPRCVCAPDCSNITWKGPVCGLDGKTYRNECALLKARCKEQPELEVQYQGRCKKTCRDVFCPGSSTCVVDQTNNAYCVTCNRICPEPASSEQYLCGNDGVTYSSACHLRKATCLLGRSIGLAYEGKCIKAKSCEDIQCTGGKKCLWDFKVGRGRCSLCDELCPDSKSDEPVCASDNATYASECAMKEAACSSGVLLEVKHSGSCNSISEDTEEEEEDEDQTGGGVECPPCPAPPVAGPSVFLFPPKPKDTLMISRTPEVTCVVVDVSHEDPEVQFNWYVDGVEVHNAKTKPREEQFNSTFRVVSVLTVVHQDWLNGKEYKCKVSNKGLPAPIEKTISKTKGQPREPQVYTLPPSREEMTKNQVSLTCLVKGFYPSDIAVEWESNGQPENNYKTTPPMLDSDGSFFLYSKLTVDKSRWQQGNVFSCSVMHEALHNHYTQKSLSLSPGK

molecular target: T1, GDF11; experiment: binding assay, method not stated

Kd	Binder
< 10 pM	B1
< 10 pM	B2
< 10 pM	B3

molecular target: T2, activin A; experiment: binding assay, method not stated

Kd	Binder
< 10 pM	B1
< 10 pM	B2
< 10 pM	B3

molecular target: T1, GDF11; experiment: cell-based or functional assay

IC50 (ng/ml), A-204 Reporter Gene Assay	Binder
26 ng/mL	B1
91 ng/mL	B4
123 ng/mL	B5
15 ng/mL	B2
41 ng/mL	B3
18 ng/mL	B6

molecular target: T2, activin A; experiment: cell-based or functional assay

IC50 (ng/ml), A-204 Reporter Gene Assay	Binder
20 ng/mL	B1
521 ng/mL	B4
369 ng/mL	B5
10 ng/mL	B2
30 ng/mL	B3
2 ng/mL	B6
